Assay results from PMC12441119 (Cell Discovery, 2025).

Experiments:
Details in all cases: both partners purified
[1] = biological target: T1, STK4 (residues 11–326) K59R (human, UniProt Q13043 11-326, K59R); assay: ITC; MicroCal PEAQ-ITC, 25 °C; 20 mM Tris-HCl pH 7.5, 100 mM NaCl, 1 mM DTT; ~50 μM in the cell, ~500 μM in the syringe; one-site binding model
T1 construct: Monomer-dimer equilibrium in solution; dimer in the crystal; also called STK4 KD; source: E. coli BL21 (DE3), purified (Ni-NTA, SEC)
T1 sequence (looked up): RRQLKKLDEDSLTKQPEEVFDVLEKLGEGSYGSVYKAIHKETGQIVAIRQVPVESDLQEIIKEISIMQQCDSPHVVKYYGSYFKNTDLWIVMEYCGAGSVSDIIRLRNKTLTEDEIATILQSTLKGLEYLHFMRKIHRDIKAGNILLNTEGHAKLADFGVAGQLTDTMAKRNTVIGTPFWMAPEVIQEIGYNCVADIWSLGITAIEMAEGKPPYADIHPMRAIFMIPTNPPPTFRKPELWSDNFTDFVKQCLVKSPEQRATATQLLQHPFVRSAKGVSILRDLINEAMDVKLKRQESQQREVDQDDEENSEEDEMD

[2] = biological target: T2, STK4 (residues 1–487) K59R (human, UniProt Q13043 1-487, K59R); assay: as above
T2 construct: The tag could be cut by HRV 3C protease 'if desired'; also called kinase-dead full-length STK4; MST1; source: E. coli BL21 (DE3), purified (Ni-NTA, SEC)
T2 sequence (looked up): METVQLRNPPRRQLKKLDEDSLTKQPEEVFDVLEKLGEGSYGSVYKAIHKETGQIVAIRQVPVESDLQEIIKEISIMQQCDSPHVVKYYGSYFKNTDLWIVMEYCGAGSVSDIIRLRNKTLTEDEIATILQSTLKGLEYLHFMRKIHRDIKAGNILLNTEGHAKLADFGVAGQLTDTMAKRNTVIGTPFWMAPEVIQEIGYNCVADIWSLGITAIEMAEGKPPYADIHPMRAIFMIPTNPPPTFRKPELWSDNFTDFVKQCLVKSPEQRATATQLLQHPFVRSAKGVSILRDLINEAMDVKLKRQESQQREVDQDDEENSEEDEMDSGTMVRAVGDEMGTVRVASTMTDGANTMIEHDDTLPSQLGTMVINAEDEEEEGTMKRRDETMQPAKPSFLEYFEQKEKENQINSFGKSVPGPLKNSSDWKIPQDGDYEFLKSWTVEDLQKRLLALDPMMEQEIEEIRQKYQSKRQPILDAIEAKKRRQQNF

[3] = biological target: T3, STK4 (residues 1–326) K59R (human, UniProt Q13043 1-326, K59R); assay: SEC; each protein alone and the mixture at matched concentrations on Superdex 200 Increase 10/300 GL or Superdex 75 Increase 10/300 GL; a forward shift or increase of the peak read qualitatively; fractions on SDS-PAGE (Fig. 1c: 20 μM HOIP RING2-LDD, 30 μM STK4 KD, Superdex 75 Increase)
T3 construct: also called KD; source: E. coli BL21 (DE3), purified (Ni-NTA, SEC)
T3 sequence (looked up): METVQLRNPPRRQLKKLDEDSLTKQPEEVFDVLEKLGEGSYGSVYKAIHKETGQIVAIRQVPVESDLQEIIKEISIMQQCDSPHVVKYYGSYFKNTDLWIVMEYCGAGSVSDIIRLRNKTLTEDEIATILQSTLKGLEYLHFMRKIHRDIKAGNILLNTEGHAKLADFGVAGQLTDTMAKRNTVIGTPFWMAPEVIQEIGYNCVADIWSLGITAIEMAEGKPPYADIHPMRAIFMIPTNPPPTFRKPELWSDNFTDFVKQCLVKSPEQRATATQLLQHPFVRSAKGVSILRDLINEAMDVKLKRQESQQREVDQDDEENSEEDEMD

binding result [1]: binds
binding result [2]: binds
binding result [3]: binds
B1: HOIP (residues 854–1072) (domain or fragment, UniProt Q96EP0 854-1072, looked up)
chain: EYQAQGLAMYLQENGIDCPKCKFSYALARGGCMHFHCTQCRHQFCSGCYNAFYAKNKCPEPNCRVKKSLHGHHPRDCLFYLRDWTALRLQKLLQDNNVMFNTEPPAGARAVPGGGCRVIEQKEVPNGLRDEACGKETPAGYAGLCQAHYKEYLVSLINAHSLDPATLYEVEELETATERYLHVRPQPLAGEDPPAYQARLLQKLTEEVPLGQSIPRRRK
notes: also called HOIP RING2-LDD; source: E. coli BL21 (DE3), purified (glutathione resin, SEC)
